Assay: yeast display, Sf9 membrane polyspecificity reagent, FACS + sequencing; frameworks hold sequencing errors
Method in brief: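 Nanobodies from a synthetic yeast display library (Saccharomyces cerevisiae BJ5465), induced 36–48 hours with galactose, were stained 1 hour at 4 °C with 10% biotinylated, detergent-solubilized Sf9 membrane reagent, enriched on streptavidin microbeads, then FACS-sorted. Anti-HA (expression) and streptavidin (reagent binding) fluorescence set low and high (top ~1%) gates. Polyreactivity labels come from the gate of origin. Genes were colony-PCR amplified, MiSeq 2 × 250 sequenced and filtered by CDR length.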
With “QVQLVESGGGLVQAGGTLRLSCAASGSTISYYTMGWYRQAPGKERELVAAISRSGTRTYYADSVKGRFTISRDNPKNTVYLQMNSLKPEDTAFFYCAARSPFYSYTPGYEYWGQGTQVTVSS” the “polyreactivity (PSR sort gate)” value was “high polyreactivity”.
With “QVQLVESGGGLVQAGGTLRLSCAASGSTQWGYDMGWYRQATGKERELVAAISSSGSNTRYADSVKGRFTISRDNEKNTVYLQLNRLKPEDTAVYYCTARTYLRGKTDYGYDSWGQGTHVTVSS” the “polyreactivity (PSR sort gate)” value was “high polyreactivity”.
In the case of “QVQLVESGGGLVQAGGTLRLSCAASGSTYEVYAMGWYRQAPGTERELVAVITGNGGSTNYADSVKGRFTISRDNAKNTVYLQMNSLKPEDTAVYYCAADFYTFVRSDYWGQGTQVTVSS”, the “polyreactivity (PSR sort gate)” value is reported as “low polyreactivity”.
In the case of “QVQLVESGGGLVQAGGTLRLSCAASGYTFPLYAMGWYRQAPVKERELVADINIGGASTYYADSVKGRFTISRDNATNTVYLQMNSLKPEDTAVYDCAKEYYDGYFPTFDYDYFGQGTQVTVSS”, the “polyreactivity (PSR sort gate)” value is reported as “low polyreactivity”.
With “QVQLVESGGGLVQAGGTLRLSCDASGFIFPGYAKGWSRNATGKQREFVAAISRSGGSTYYADSVKGRFTISRDNAKNTVYLQMNSLKPEDTAVYYCATRARGYTGYDYWGQGTQVTVSS” the “polyreactivity (PSR sort gate)” value was “high polyreactivity”.
In the case of “QVQLVESGGGLVQAGGTLRLSGAASGFIFPQYAMGWYRQAPGKERELVAAISTGGGSTYYADSVKGRFTISRDNAKNTVYLQMNSLKPEDTAVYYCNARPKYDSGHYYWGQGTQVTVSS”, the “polyreactivity (PSR sort gate)” value is reported as “high polyreactivity”.
With “QVQLVESGGGLVQAGGTLRLSGAASGRTLRRYAMGWYRQAPGKARELVATISGRGGSTYYADSVKGRFTISRDNAKNTVYLQMNSLKPEDTAVYYCAADSVLSKYDYWGQGTQVTVSS” the “polyreactivity (PSR sort gate)” value was “high polyreactivity”.
In the case of “QVQLVESGGGLVQAGGTLSLSCAATGRNLSYAMGWYRQAPGKERELVAAMNWSGGTTYYADSVKGRFTISRDNAKNTVYLQMNSLKQEDTAVYYCAARVRGTGYNSWGQGTQLTVSS”, the “polyreactivity (PSR sort gate)” value is reported as “high polyreactivity”.
With “QVQLVESGGGLVQAGRILRLSCAASGIILGRYAMGWYRQAHGKERELVAAITASGGRTYYADSVKGRFTISRDNAKNTVYLQMNSLKPEDTAVYYCNTVYWGYKSHYDYWGQGTQVTVSS” the “polyreactivity (PSR sort gate)” value was “high polyreactivity”.
In the case of “QVQLVESGGGLVQAGRSHRLSCAASGFTFFDNAMGWYRQAPGKERELVAAITWSDGSTYYADSVKGRFTISRDNAKNTVYLQMNSLKPEDTAVYYCNKRGWWDLRHDYWGQGTHVTVSS”, the “polyreactivity (PSR sort gate)” value is reported as “low polyreactivity”.
With “QVQLVESGGGLVQAGRSLRLICAASGRISVFYTMGWYRQAPGKERELVAVIRTSGGRTNYADSVKGRFTISRDNAKNTVYLQMNSLKPEDTAVYYCAARVVRYGFKYYYWGQGTQVTVSS” the “polyreactivity (PSR sort gate)” value was “low polyreactivity”.
In the case of “QVQLVESGGGLVQAGRSLRLICAASGSTFPSYAMGWYRQAPGNERELVAAINSGGGTNYADAVKGRFTISRDNAKNTVYLQMNSLKPEDTAVFYCAKSRYDYTKTEGGYWGQATQVTVSS”, the “polyreactivity (PSR sort gate)” value is reported as “low polyreactivity”.
With “QVQLVESGGGLVQAGRSLRLICAASGSTFYVNAMGWYRQAPGKEREFVAAIRWPGGSTYYADSVKWRFTISRDNAKNTFYVQMNSLKPEDTAVFYCAARIKYRYVWGQGTQVTVSS” the “polyreactivity (PSR sort gate)” value was “low polyreactivity”.
With “QVQLVESGGGLVQAGRSLRLNCAASGLTFYKYAMGWYRQAPGKERELVAAISYRGGSTYYADSVKGRFTISRDNAKNTVSLQLNSLKPEVTAVYYCAAGYPYGGDYWGQGTQVTVSS” the “polyreactivity (PSR sort gate)” value was “high polyreactivity”.
With “QVQLVESGGGLVQAGRSLRLSCAASGFIFGHNAMGWSRQAPGKERELFAAIRSRGGSTYYADSVKGRFTISRDNAKNTVYLQMNSLKREDTAVYYCAADGAVVSSSRKFVYWGQGTQVTVSS” the “polyreactivity (PSR sort gate)” value was “low polyreactivity”.
For “QVQLVESGGGLVQAGRSLRLSCAASGFTFAYYAMGWYRQAPGKERELVAAISRGGTSTYYADSVKGRFTISRDNAKNTVYLQMNSLKPEDTAVYYCNAVKVGYSLYDYWGQGTQVTVSS”, the “polyreactivity (PSR sort gate)” value was “high polyreactivity”.
In the case of “QVQLVESGGGLVQAGRSLRLSCAASGFTFQSYDMGWYRQAPGKDRELVAAISWSGASTYYADSVKGRFTISRDNAKNTVYLQMNSLKPEDTAVYYCAAGEPTWWGYANDYWGQGTQVTVST”, the “polyreactivity (PSR sort gate)” value is reported as “high polyreactivity”.
In the case of “QVQLVESGGGLVQAGRSLRLSCAASGGLFQKYPMGWYRHAPGKERELVAAISGSGGRTYYADSVKGRFTISRDNAKNTVYLQMNTLKPEDTEVYYCAATLNRYGYDYWGQGTQVTVST”, the “polyreactivity (PSR sort gate)” value is reported as “high polyreactivity”.
With “QVQLVESGGGLVQAGRSLRLSCAASGLTFLAYDMGWYRQAPGKVRQLVAAITGGGSTHYADSVKGRFTISRDNAKNTVYLQMTSLKPDDTAVSYCNADVYVYSVTSHYPSYRLDYWGHGTQVTVSS” the “polyreactivity (PSR sort gate)” value was “high polyreactivity”.
For “QVQLVESGGGLVQAGRSLRLSCAASGRIFADYAMGWYRQAPGKERQLVAAITSGGTTYADSVKGRFTISRDNAKNTVYLQMNSLKPEDSAVYYCAAQGQGRTGGFGKGSTYGYWGQGTQVTVSS”, the “polyreactivity (PSR sort gate)” value was “low polyreactivity”.
In the case of “QVQLVESGGGLVQAGRSLRLSCAASGRIFAQNAMGWYRQAPGKERELVAAISWGGGGTYYADSVKGRFTISRDNAKNTVYLQMNSLKPEDTAVYYCAADSPGFGAWDRYEYWGQGTQVTVSS”, the “polyreactivity (PSR sort gate)” value is reported as “low polyreactivity”.
For “QVQLVESGGGLVQAGRSLRLSCAASGRIFCYYAMGWYRQAPGKERELVAAITRGGSTYYADSVKGRFTISRDNAKNTVYLQMNSLKPEDTAVYYCAATISGLVKYENDYWGQGTQVTVSS”, the “polyreactivity (PSR sort gate)” value was “low polyreactivity”.
For “QVQLVESGGGLVQAGRSLRLSCAASGRIFGPYTMGWYRQAPGKEREFVAAITRRGGSTYYADSVKGRFTISRDNAKNTGYLQRHSLKPEDTAVYYCAAVGQKRSLGYSWGQGTQVTVSS”, the “polyreactivity (PSR sort gate)” value was “low polyreactivity”.
With “QVQLVESGGGLVQAGRSLRLSCAASGRIFPRNVMGWYRQAPGKERELVAAISSRGTRTYYADSVKGRFTISRDNAKNSVYLQLYSLKPEDTAVYYCAADGPYEGYDYWGQGTQVTVSS” the “polyreactivity (PSR sort gate)” value was “high polyreactivity”.
In the case of “QVQLVESGGGLVQAGRSLRLSCAASGRIIYGYPMGWYRQAPGIERELVAAITATYYADSVKGRFTISRDNAKNTVYLQMNSLKPEDTAVYYCNAYLSPKQPLSPPDPTFEGGYWGQGTQVTVST”, the “polyreactivity (PSR sort gate)” value is reported as “low polyreactivity”.
In the case of “QVQLVESGGGLVQAGRSLRLSCAASGRTFARYAMGGYRQAPGKERELVAAINSGGSTNYADSVKGRFTISRDNAKNTDYLQMNSLKPEDTAVYYCAADSYWKWYIAYPYYWGQGTQVTVSS”, the “polyreactivity (PSR sort gate)” value is reported as “high polyreactivity”.
In the case of “QVQLVESGGGLVQAGRSLRLSCAASGRTFGANAMGWYRQAPGKERELVAAISYHGTRTYYADSVKGRFTISRDNAKNTVYLQMNSLKPEDTAVYYCAAVGKPGVYQEGDYWGQGTQVTVSS”, the “polyreactivity (PSR sort gate)” value is reported as “high polyreactivity”.
In the case of “QVQLVESGGGLVQAGRSLRLSCAASGRTFGTNAMGWYRQAPGKERELVAAISRRGGSTYYADSVKGRFTISRDNAKNTVYLQMNCLKPEDTAVYYCASDFWYYQYPYGGGGYWGQGTQVTVSS”, the “polyreactivity (PSR sort gate)” value is reported as “low polyreactivity”.
For “QVQLVESGGGLVQAGRSLRLSCAASGRTFPPYDMGWYRQAPGKERELVAAITSDGSTSYADSVKGRFTISRDNAKNTVYLQMNRLKPEDTAVYYCNAEYGYSFGYGYYWWFDYWGQGTQVTVSA”, the “polyreactivity (PSR sort gate)” value was “high polyreactivity”.
For “QVQLVESGGGLVQAGRSLRLSCAASGRTFPYYAMGWYRQAHGKEREFVAAISRRGASTYYADSVKGRFTISRDNAKNTVNLQMNSLKPEDTAVYYCNAVYRCYYSGELDYWGQGTQVTVSS”, the “polyreactivity (PSR sort gate)” value was “high polyreactivity”.
For “QVQLVESGGGLVQAGRSLRLSCAASGRTFSVNAMGCYRQAPVKERELVAAISWDGGSTYYADSVKGRFTISRDNAKNTVYLQMISLKPEDTSVYDCNKDLYYAYDYWGQGSQVTVSS”, the “polyreactivity (PSR sort gate)” value was “low polyreactivity”.
In the case of “QVQLVESGGGLVQAGRSLRLSCAASGSIFEYYAMGWSRQAPGKEWELVAAITESGGSTYYADSVKGRFHNFTRQCEEYRLFTDEQPETGRYRGLLLAADAESYQNDYALDYWGQGTQETVSS”, the “polyreactivity (PSR sort gate)” value is reported as “low polyreactivity”.
With “QVQLVESGGGLVQAGRSLRLSCAASGSIFGWNAMGWYRQAPGKERELVAAINGGDRTNYADSVKGRFTISRDNAKNTVYLQMNSLNTEDTAVYYCGKDFYPTRPGWGGGEYNYWGQGTQVTVSS” the “polyreactivity (PSR sort gate)” value was “low polyreactivity”.
With “QVQLVESGGGLVQAGRSLRLSCAASGSIFTHNAMGWYRQAPGKERELVASITSRGGITYYADSVKGRFTISRDNAKNTVYLQMNSLKPEDTAVYYCAADLYIYPYDYWGQGTQVTVSS” the “polyreactivity (PSR sort gate)” value was “low polyreactivity”.
In the case of “QVQLVESGGGLVQAGRSLRLSCAASGYIIYPNAMGWYRQAPGKERELVAAITSGGSTTYADSVKGRFTISRDNAKNTVYVQMNCLKPEDSAVYYCAARFVLWSRTYYSWGQGTQVTVSS”, the “polyreactivity (PSR sort gate)” value is reported as “high polyreactivity”.
For “QVQLVESGGGLVQAGRSLRLSCASSGSTFRVYDMGWYRQAPGNERELVASISYSVGSTYYADSVKGRFTISRDNAKNTVYLQMITLKPEDTEVYFCAARPSYQPSSLARYDYWGQGTQVSVSS”, the “polyreactivity (PSR sort gate)” value was “low polyreactivity”.
With “QVQLVESGGGLVQAGRSLRLSCASSGSTIVNYAMGWYRQAPGKEMELVAAISRSGGRTYYADSVKGRFTISRDNAKNTVYLQMNSLKPEDTAVYYCARLLLSPEYGYWGQGTQVTVSS” the “polyreactivity (PSR sort gate)” value was “high polyreactivity”.
In the case of “QVQLVESGGGLVQAGRTLRLSCAASGFTFGRYAMGWYRQAPGKERELVAAISRNGGRTYYADSVKGRFTISRDNAMNTVYFQMNSLKPEDTAVYNCAADGYERKTAQYDYWGQGTQVTVSS”, the “polyreactivity (PSR sort gate)” value is reported as “high polyreactivity”.
In the case of “QVQLVESGGGLVQAGSSLRLSCAASGRTFGGYVMGWYRQAPGKERELVAAISSSAGSTYYADSVKGRFTISRDNAKNTVYLQMNSLKPEDTAVYYCAKRSYNPYDHYYRYQYGYWGQGTQVTVSS”, the “polyreactivity (PSR sort gate)” value is reported as “high polyreactivity”.
In the case of “QVQLVESGGGLVQAGVILRLSCAASGSTFSLYAMGWYRKPPGKERELVAAISWSDGSTYYADSVKGRFTISRDNAKITVYLQMNSLKAEDTAVSYFANASSFAYYRFGYWGQVTQVTVSS”, the “polyreactivity (PSR sort gate)” value is reported as “low polyreactivity”.
For “QVQLVESGGGLVQAGVILRLSCAASGSTIGVNAMGWYRQPPAKERELVAAISLGGGRTYYADSVKGRFTISRDNAKNTVNLQMNCLKPEDTAVYYCNTDFGARMGYWGQGTQVTVSS”, the “polyreactivity (PSR sort gate)” value was “high polyreactivity”.
For “QVQLVESGGGLVQAGVRLRLSFAASGFTFRLYTMGWYRQAPGKERELVAAITYSGDSTYYADSVKGRFTISRDNAKNTVYLQMNSLKPEDTAVYYCAARKYYARYYWGQGTQVTVSS”, the “polyreactivity (PSR sort gate)” value was “high polyreactivity”.
With “QVQLVESGGGLVQAGVSLRLRCASSGSIFRRNVMGWYRQAPGKERELVAAISWSGGRTYYADSVKGRFTISRDNAKNTVYLQMNSLKPEDTAVYYCAAENGYYAYDYWGQGTQVTVSS” the “polyreactivity (PSR sort gate)” value was “high polyreactivity”.

Reference: the nanobody polyreactivity screen of Harvey et al. (2022)
